The values that follow come from publication PMC3462482 (Nature structural & molecular biology, 2012).

This assay concerns the target T1, PatGmac H618A (Prochloron sp., UniProt Q52QJ1 492-851, H618A).
T1 sequence: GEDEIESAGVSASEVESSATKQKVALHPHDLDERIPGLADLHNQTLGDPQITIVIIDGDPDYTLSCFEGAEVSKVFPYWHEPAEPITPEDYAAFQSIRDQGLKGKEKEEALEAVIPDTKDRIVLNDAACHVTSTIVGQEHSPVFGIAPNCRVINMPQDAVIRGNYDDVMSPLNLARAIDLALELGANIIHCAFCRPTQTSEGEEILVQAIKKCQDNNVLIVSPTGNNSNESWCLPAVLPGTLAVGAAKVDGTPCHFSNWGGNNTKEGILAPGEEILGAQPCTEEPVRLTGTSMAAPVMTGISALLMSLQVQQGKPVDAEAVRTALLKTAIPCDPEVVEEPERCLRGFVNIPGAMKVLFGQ
Description: crystal structure.

B1: VPAPIPFPAYDG peptide (substrate mimic) (peptide)
peptide: VPAPIPFPAYDG
In the case of B1, the binding result is recorded as “binds”.
